These results are taken from publication PMC3334289 (Fems Microbiology Letters, 2012).

This series deals with the molecule itself. The experiment in a line: sedimentation of polymers.

B1: His6-tagged MreB (MreB-HIS) (natural protein, E. coli, UniProt P0A9X4 1-347, looked up)
chain: MLKKFRGMFSNDLSIDLGTANTLIYVKGQGIVLNEPSVVAIRQDRAGSPKSVAAVGHDAKQMLGRTPGNIAAIRPMKDGVIADFFVTEKMLQHFIKQVHSNSFMRPSPRVLVCVPVGATQVERRAIRESAQGAGAREVFLIEEPMAAAIGAGLPVSEATGSMVVDIGGGTTEVAVISLNGVVYSSSVRIGGDRFDEAIINYVRRNYGSLIGEATAERIKHEIGSAYPGDEVREIEVRGRNLAEGVPRGFTLNSNEILEALQEPLTGIVSAVMVALEQCPPELASDISERGMVLTGGGALLRNLDRLLMEETGIPVVVAEDPLTCVARGGGKALEMIDMHGGDLFSEE
As to B1, the binding result is reported as “binds”.
